Results as given in patent US20230380451A1, “MEANS AND METHODS TO DETOXIFY MYCOTOXINS” (priority 2020, published 2023).
Where two headings read alike, the source gives them in different places.

Columns and labels:
[1] = Storage stability in storage buffer at different temperatures, residual DON transformation activity; format: biochemical; settings: for Relative DON transformation activity: storage buffer
Method: (§1) To determine the transformation of DON to epi-THS by Akr I-III, described herein, the following assay was performed. An assay buffer was prepared containing 40 ppm DON, 1 mM NADPH in Teorell Stenhagen (TS) buffer, pH 6.0 (Östling and Virtama, Acta Physiologica Scandinavica, 1946, 11:4, 289-293). Tubes containing the assay buffer were transferred in a heating block at 30° C. The reaction was started by addition of Akr I-III to a final concentration of 200 nM in a final reaction volume of 200 μL. Samples were taken before reaction start, and 2, 5, 10, 15 and 20 min after reaction start. DON transformation reactions in these samples were stopped by mixing with absolute methanol at a 1:2 ratio, followed by a 1:100 dilution with 40% methanol. The concentrations of DON and epi-THS in the samples were determined with liquid chromatography-mass spectrometry (LC-MS) on a Sciex 5500 triple quadrupole mass spectrometer coupled to Agilent 1290 series UHPLC system, using the following MS parameters: Acquisition duration: 4 min; Scan Type: MRM (MRM); Polarity: Negative; Ion Source: Turbo Spray.
The storage stability of Akr I-III was tested by incubation of 5 μM enzyme solutions in storage buffer (50 mM Tris pH 9.0, 0.5M NaCl, 50% Glycerol), for 60 min in a thermocycler (Mastercycler, Eppendorf) set to gradient mode from 30° C. to 50° C. Throughout the incubation, samples were removed and placed on ice until DON transformation assays were performed as described in Example 3 to determine enzyme activities. The starting activity at time 0 min was set to 100% and the relative residual activities were determined throughout the incubation. Akr I retained more than 33% activity during 60 min in pH 6 at temperatures from 29.9° C. to 46.0° C. Akr III retained 15% to 90% activity during 20 min in pH 6 at temperatures from 29.9° C. to 40.7° C.

[2] = format: biochemical
Method: as §1
For LC, eluent A was 5% methanol, 94.9% water (ultrapure), 0.1% acetic acid, and eluent B was 99.9% methanol, 0.1% acetic acid, using a Phenomenex Kinetex 2.6 μm biphenyl 150×2.1 mm column, an injection volume of 1 μL and the protocol shown in Table 3.
By applying the DON transformation assay basically as described in Example 3, but at pH values ranging from pH 2 to pH 10, the pH optima for DON degradation of Akr I-III (SEQ ID NOs: 1-3) were determined. Akr I and Akr II reached maximum activities at pH 6.0, Akr III at pH 6.5.
By applying the DON transformation assay basically as described in Example 3, but at different temperatures ranging from 14.9° C. to 55.7° C., the temperature optima for the DON degradation activities of Akr I-III were determined. Akr I maximum activity was shown at approximately 35° C., Akr II at approximately 31° C., and Akr III at temperatures from approximately 28° C. to 33° C. (see FIG. 4). […] For Akr I even at temperatures below 20° C.

B1: Akr I: artificial amino acid sequence, variant of a wild type aldo-keto reductase (protein)
chain: MRTTEISQGLKVSNLCIGAGPLGGMPTAFGYDVSEERGIATVQAVFDSPINFMDTSSEYGDSEVRIGKVIREGRMPKGFVIATKADAEGDGTARRGDFSAKQVRASFELSLERLGLTHIDVYFLHDPEKFPFEHVMARGGAMEELLRLKDEGLVGLVGVAGGDVVEMARYVDTGNLDILLNYGRYTLLDRSADSLIDKASDAGMAFLNAGPYASGLLAAPRGGSAWYQYAPPNADALQAVDQLHELCESFDVSLRSVALQFSMRDPRITSTVVGLSRPERVRALLDDAAAEIPAELWDQLPAPLNLPWNSLA
modifications: ArkI
Q: With B1 as the molecule, how does the retained activity ([1]; during 60 min in pH 6 at temperatures from 29.9° C. to 46.0° C.) read?
A: more than 33%

Q: And the “Relative DON transformation activity” value ([1]; 29.9° C., 0 min (starting activity set to 100%))?
A: 100.00%

Q: And the “Relative DON transformation activity” value ([1]; 29.9° C., 5 min)?
A: 121.5%

Q: What about the “Relative DON transformation activity” value ([1]; 29.9° C., 10 min) of the same molecule?
A: 114.8%

Q: And the “Relative DON transformation activity” value ([1]; 29.9° C., 20 min)?
A: 118.9%

Q: And the “Relative DON transformation activity” value ([1]; 29.9° C., 35 min)?
A: 106.2%

Q: What about the “Relative DON transformation activity” value ([1]; 29.9° C., 50 min) of the same molecule?
A: 70.1%

Q: What about the “Relative DON transformation activity” value ([1]; 29.9° C., 60 min) of the same molecule?
A: 53.7%

Q: And the “Relative DON transformation activity” value ([1]; 35.3° C., 0 min (starting activity set to 100%))?
A: 100.00%

Q: And the “Relative DON transformation activity” value ([1]; 35.3° C., 5 min)?
A: 132.8%

Q: What about the “Relative DON transformation activity” value ([1]; 35.3° C., 10 min) of the same molecule?
A: 97.7%

Q: What about the “Relative DON transformation activity” value ([1]; 35.3° C., 20 min) of the same molecule?
A: 101.5%

Q: What about the “Relative DON transformation activity” value ([1]; 35.3° C., 35 min) of the same molecule?
A: 109.7%

Q: What about the “Relative DON transformation activity” value ([1]; 35.3° C., 50 min) of the same molecule?
A: 84.6%

Q: What about the “Relative DON transformation activity” value ([1]; 35.3° C., 60 min) of the same molecule?
A: 47.0%

Q: And the “Relative DON transformation activity” value ([1]; 37.9° C., 0 min (starting activity set to 100%))?
A: 100.00%

Q: And the “Relative DON transformation activity” value ([1]; 37.9° C., 5 min)?
A: 130.1%

Q: And the “Relative DON transformation activity” value ([1]; 37.9° C., 10 min)?
A: 101.4%

Q: And the “Relative DON transformation activity” value ([1]; 37.9° C., 20 min)?
A: 110.1%

Q: What about the “Relative DON transformation activity” value ([1]; 37.9° C., 35 min) of the same molecule?
A: 109.0%

Q: What about the “Relative DON transformation activity” value ([1]; 37.9° C., 50 min) of the same molecule?
A: 77.0%

Q: What about the “Relative DON transformation activity” value ([1]; 37.9° C., 60 min) of the same molecule?
A: 48.6%

Q: What about the “Relative DON transformation activity” value ([1]; 40.7° C., 0 min (starting activity set to 100%)) of the same molecule?
A: 100.00%

Q: What about the “Relative DON transformation activity” value ([1]; 40.7° C., 5 min) of the same molecule?
A: 130.2%

Q: And the “Relative DON transformation activity” value ([1]; 40.7° C., 10 min)?
A: 100.7%

Q: What about the “Relative DON transformation activity” value ([1]; 40.7° C., 20 min) of the same molecule?
A: 60.5%

Q: What about the “Relative DON transformation activity” value ([1]; 40.7° C., 35 min) of the same molecule?
A: 95.8%

Q: And the “Relative DON transformation activity” value ([1]; 40.7° C., 50 min)?
A: 76.1%

Q: What about the “Relative DON transformation activity” value ([1]; 40.7° C., 60 min) of the same molecule?
A: 50.0%

Q: And the “Relative DON transformation activity” value ([1]; 43.4° C., 0 min (starting activity set to 100%))?
A: 100.00%

Q: And the “Relative DON transformation activity” value ([1]; 43.4° C., 5 min)?
A: 133.6%

Q: And the “Relative DON transformation activity” value ([1]; 43.4° C., 10 min)?
A: 111.3%

Q: What about the “Relative DON transformation activity” value ([1]; 43.4° C., 20 min) of the same molecule?
A: 79.1%

Q: And the “Relative DON transformation activity” value ([1]; 43.4° C., 35 min)?
A: 75.2%

Q: What about the “Relative DON transformation activity” value ([1]; 43.4° C., 50 min) of the same molecule?
A: 60.2%

Q: What about the “Relative DON transformation activity” value ([1]; 43.4° C., 60 min) of the same molecule?
A: 52.9%

Q: And the “Relative DON transformation activity” value ([1]; 46.0° C., 0 min (starting activity set to 100%))?
A: 100.00%

Q: And the “Relative DON transformation activity” value ([1]; 46.0° C., 5 min)?
A: 125.9%

Q: What about the “Relative DON transformation activity” value ([1]; 46.0° C., 10 min) of the same molecule?
A: 123.1%

Q: What about the “Relative DON transformation activity” value ([1]; 46.0° C., 20 min) of the same molecule?
A: 83.4%

Q: What about the “Relative DON transformation activity” value ([1]; 46.0° C., 35 min) of the same molecule?
A: 61.8%

Q: And the “Relative DON transformation activity” value ([1]; 46.0° C., 50 min)?
A: 3.0%

Q: What about the “Relative DON transformation activity” value ([1]; 46.0° C., 60 min) of the same molecule?
A: 33.1%

Q: What about the “Relative DON transformation activity” value ([1]; 50.8° C., 0 min (starting activity set to 100%)) of the same molecule?
A: 100.00%

Q: What about the “Relative DON transformation activity” value ([1]; 50.8° C., 5 min) of the same molecule?
A: 118.6%

Q: What about the “Relative DON transformation activity” value ([1]; 50.8° C., 10 min) of the same molecule?
A: 44.2%

Q: What about the “Relative DON transformation activity” value ([1]; 50.8° C., 20 min) of the same molecule?
A: 16.3%

Q: What about the “Relative DON transformation activity” value ([1]; 50.8° C., 35 min) of the same molecule?
A: 4.9%

Q: What about the “Relative DON transformation activity” value ([1]; 50.8° C., 50 min) of the same molecule?
A: 7.5%

Q: What about the “Relative DON transformation activity” value ([1]; 50.8° C., 60 min) of the same molecule?
A: 0%

Q: And the “temperature of maximum DON degradation activity (temperature optimum)” value ([2]; 14.9° C. to 55.7° C. tested)?
A: approximately 35 °C

Q: And the DON degradation ([2]; 14.9° C., after 20 min of incubation)?
A: complete DON degradation

Q: What about the “pH of maximum DON degradation activity (pH optimum)” value ([2]; pH 2 to pH 10 tested, 30° C.) of the same molecule?
A: 6.0

Q: What about the DON degradation ([2]; pH 4.0, after 30 min) of the same molecule?
A: complete degradation
